Assay results: patent US20090324603A1 (VAN ANDEL RESEARCH INSTITUTE, published 2009)

Key:
[1] = molecular target: human c-Met (HGF/SF receptor) on S114 and MKN45 cells (human, UniProt P08581 25-1390); test: cell-based or functional assay
[2] = molecular target: T1, recombinant c-Met antigen (human, UniProt P08581 25-932, limits assumed); test: non-competitive ELISA with serial dilutions of both Met and scFv (Beatty method)
T1 construct: also called immobilized Met antigen; human Met antigen
Method: (§1) The most commonly used formula was established by David Beatty and the equation was Kaff=(n−1)/(2{n[Ab′]ₜ−[Ab]ₜ}) (n=[Ag]/[Ag′]). This method utilized OD-50 of the sigmoid curve and obviated the need for affinity purification of antibody used as standard. Using serial dilutions of both antigen ([Ag], [Ag′]) and antibody (scFv antibody), the affinity constant (Kaff) was measured by non-competitive ELISA. Two sigmoid curves of optical density (OD) versus logarithms of antibody concentrations were estimated by SPSS 10.0 software. The maximum value of OD (OD-100) of each curve was computed respectively and OD-50, half of OD-100, was obtained. Then the concentrations of antibody corresponding to OD-50 on the curves, named [Ab]ₜ and [Ab′]ₜ were calculated. For [Ag′]=½[Ag], Kaff=1/{2[Ab′]ₜ−[Ab]ₜ}.

[3] = molecular target: T1, recombinant c-Met antigen; test: non-competitive ELISA, Kd of scFv-S1 against Kd of the original Fab
Method: as §1

T1 sequence (P08581 25-932 limits assumed): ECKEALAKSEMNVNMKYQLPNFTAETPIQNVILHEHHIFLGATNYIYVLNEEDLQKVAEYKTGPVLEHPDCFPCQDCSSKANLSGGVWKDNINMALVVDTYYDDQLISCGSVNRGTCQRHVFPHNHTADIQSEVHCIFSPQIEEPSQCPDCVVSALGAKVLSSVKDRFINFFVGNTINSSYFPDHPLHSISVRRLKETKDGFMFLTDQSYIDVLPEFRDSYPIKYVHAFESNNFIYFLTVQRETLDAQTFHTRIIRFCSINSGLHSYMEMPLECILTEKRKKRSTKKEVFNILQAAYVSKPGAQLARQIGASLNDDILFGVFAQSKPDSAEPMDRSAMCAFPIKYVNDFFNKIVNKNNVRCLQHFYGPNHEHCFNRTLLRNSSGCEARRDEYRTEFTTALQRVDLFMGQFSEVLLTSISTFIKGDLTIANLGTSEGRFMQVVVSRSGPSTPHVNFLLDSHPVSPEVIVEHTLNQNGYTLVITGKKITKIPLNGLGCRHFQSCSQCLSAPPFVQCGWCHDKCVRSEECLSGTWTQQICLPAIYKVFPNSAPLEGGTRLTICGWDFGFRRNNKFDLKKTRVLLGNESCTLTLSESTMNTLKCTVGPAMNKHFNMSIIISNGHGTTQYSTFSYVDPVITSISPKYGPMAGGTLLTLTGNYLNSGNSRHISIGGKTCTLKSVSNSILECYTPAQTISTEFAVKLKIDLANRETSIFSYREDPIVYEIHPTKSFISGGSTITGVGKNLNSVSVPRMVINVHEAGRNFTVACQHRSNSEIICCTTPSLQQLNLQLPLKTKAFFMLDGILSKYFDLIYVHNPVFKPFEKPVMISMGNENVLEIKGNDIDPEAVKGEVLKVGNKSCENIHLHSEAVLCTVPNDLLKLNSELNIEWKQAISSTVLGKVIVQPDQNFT
human c-Met (HGF/SF receptor) on S114 and MKN45 cells, sequence (P08581 25-1390): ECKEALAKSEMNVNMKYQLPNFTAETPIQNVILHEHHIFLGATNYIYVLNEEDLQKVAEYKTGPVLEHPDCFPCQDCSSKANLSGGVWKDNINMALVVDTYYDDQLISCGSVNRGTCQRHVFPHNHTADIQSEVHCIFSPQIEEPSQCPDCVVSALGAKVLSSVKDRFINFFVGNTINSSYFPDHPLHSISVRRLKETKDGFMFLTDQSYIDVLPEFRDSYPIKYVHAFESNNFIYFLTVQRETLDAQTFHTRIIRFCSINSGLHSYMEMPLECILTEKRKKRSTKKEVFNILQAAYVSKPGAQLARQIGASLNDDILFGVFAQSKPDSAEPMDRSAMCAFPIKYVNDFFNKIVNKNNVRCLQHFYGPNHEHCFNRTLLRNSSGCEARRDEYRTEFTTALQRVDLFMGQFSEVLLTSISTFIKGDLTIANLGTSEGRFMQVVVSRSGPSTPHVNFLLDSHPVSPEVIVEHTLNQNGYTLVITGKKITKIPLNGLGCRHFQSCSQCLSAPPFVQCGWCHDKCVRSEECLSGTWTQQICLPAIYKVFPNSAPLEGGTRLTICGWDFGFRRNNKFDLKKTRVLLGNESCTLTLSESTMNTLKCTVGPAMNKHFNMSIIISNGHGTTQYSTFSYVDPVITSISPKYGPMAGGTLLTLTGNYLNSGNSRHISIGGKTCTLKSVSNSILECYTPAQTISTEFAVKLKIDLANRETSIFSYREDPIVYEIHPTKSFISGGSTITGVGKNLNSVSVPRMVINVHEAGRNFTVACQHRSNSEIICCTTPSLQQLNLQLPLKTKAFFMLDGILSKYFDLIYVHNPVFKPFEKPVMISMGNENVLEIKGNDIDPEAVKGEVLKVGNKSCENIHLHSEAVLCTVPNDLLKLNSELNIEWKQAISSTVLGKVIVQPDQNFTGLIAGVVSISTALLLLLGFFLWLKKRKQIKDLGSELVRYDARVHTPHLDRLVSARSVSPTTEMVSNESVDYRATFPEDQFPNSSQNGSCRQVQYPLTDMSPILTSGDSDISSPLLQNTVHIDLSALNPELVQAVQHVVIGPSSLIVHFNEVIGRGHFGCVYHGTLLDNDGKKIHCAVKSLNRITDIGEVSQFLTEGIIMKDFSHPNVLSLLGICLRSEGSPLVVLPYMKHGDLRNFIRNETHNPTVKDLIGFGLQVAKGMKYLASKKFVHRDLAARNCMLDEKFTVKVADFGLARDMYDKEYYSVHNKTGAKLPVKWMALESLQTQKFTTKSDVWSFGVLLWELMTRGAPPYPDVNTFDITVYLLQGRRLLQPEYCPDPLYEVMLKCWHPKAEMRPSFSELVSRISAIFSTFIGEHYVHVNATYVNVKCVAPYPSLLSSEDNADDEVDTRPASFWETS

B1: anti-Met Fab-Met-2 (Fab, V domains shown)
VH: EVQLVESGGGVVQPGRSLRLSCAASGFTFSSYAMHWVRQAPGKGLEWVAVIWYDGSNRYYADSVKGRFTISRDNSKNTLYLQMNSLRAEDTAVYYCASQATEGLIWGQGTLVTVSP
VL: ELQMTQSPSLLSASTGDRVTISCRASQSISSYLNWYQQKPGKAPKLLIYTRSSLQSGVPSRFSGSGSGTDFTLTISSLQPEDFATYYCQQSYSTPHTFGQGTKLEIKR
inhibition ratio of S114 cells incubated with 800 ng Fab and Hum-ZAP, 72 hrs [1]: 73.8% | inhibition ratio of S114 cells incubated with 800 ng Fab and Hum-ZAP, 96 hrs [1]: 62.7%

B2: anti-Met scFv-S1 (scFv)
scFv: ELQMTQSPSLLSASTGDRVTISCRASQSISSYLNWYQQKPGKAPKLLIYTRSSLQSGVPSRFSGSGSGTDFTLTISSLQPEDFATYYCQQSYSTPHTFGQGTKLEIKGGSSRSSSSGGGGSGGGGEVQLVESGGGVVQPGRSLRLSCAASGFTFSSYAMHWVRQAPGKGLEWVAVIWYDGSNRYYADSVKGRFTISRDNSKNTLYLQMNSLRAEDTAVYYCASQATEGLIWGQGTLVTVSP
notes: also called scFv Si; S1 phage
Kd [2]: 51.5 nM | fold increase in affinity against the original Fab [3]: 117 times
